We go through two variants from PMC3791464 (eLife, 2013).

First the molecules themselves.
B1: GFP–Orc6 wild type (fly transgene) [Drosophila melanogaster] / Drosophila Orc2, endogenous in fly ovaries [Drosophila (endogenous in fly ovaries)] (parent)
chain 1: MTTLIEQLITKMGLREEPNVLEKTTELVRLLELRSTNVPLQINEYGKIVLCADLASCMIGIAFDKEQALKLSGLRKSQYLNNKRMFEKLLDLNKLASVNDICVQLGLNEVARKAEELMTLFKGVAATEDMGTDTSHPQYATMAVFQACRLLKKKVSKSKLMPFSNLRPSQFQLLEQQWERMIAKHHKESKVPSSTDMEGKLKENQNENIKGHEAKKAHKPPPEDYEIWKARMLAKAQAKLKELEASQSHMDSQLLEA
chain 2: MSASNKGGYKTPRKENLMSIENLTNSEEESEDLNTAMVGNAVESQPKVTSRRSTRRPSPTKKYQAYQKESNGKGQEERIVVNYVEMSDERSSDAEDQEEEESIEESENAARPAAKDLHLIQSEYNVAGTSMFGFNTPKKRDAMALAALNATPCTPKTPKTPRLGVKTPDTKRKKSMDQPKTPAHVRTRVKKQIAKIVADSDEDFSGDESDFRPSDEESSSSSSSSDAGNSSDNDAADDEPKTPSRARRAIVVPVLPKTPSAARLRQSARAKKSNEFVPESDGYFHSHASSKILTSDHTLDRLKNPRLAADRVFSLLSEIKTSAEHEGSINAIMEEYRSYFPKWMCILNEGFNILLYGLGSKHQLLQSFHREVLHKQTVLVVNGFFPSLTIKDMLDSITSDILDAGISPANPHEAVDMIEEEFALIPETHLFLIVHNLDGAMLRNVKAQAILSRLARIPNIHLLASIDHINTPLLWDQGKLCSFNFSWWDCTTMLPYTNETAFENSLLVQNSGELALSSMRSVFSSLTTNSRGIYMLIVKYQLKNKGNATYQGMPFRDLYSSCREAFLVSSDLALRAQLTEFLDHKLVKSKRSVDGSEQLTIPIDGALLQQFLEEQEKK

Variants of B1 are the subject of the test. Description: GFP fluorescence of anti-Orc2 immunoprecipitates. To be noted: with Drosophila Orc2, endogenous in fly ovaries [Drosophila (endogenous in fly ovaries)]; fly ovary extracts; three independent experiments; read off a plot.
chain 1 MTTLIEQLITKMGLREEPNVLEKTTELVRLLELRSTNVPLQINEYGKIVLCADLASCMIGIAFDKEQALKLSGLRKSQYLNNKRMFEKLLDLNKLASVNDICVQLGLNEVARKAEELMTLFKGVAATEDMGTDTSHPQYATMAVFQACRLLKKKVSKSKLMPFSNLRPSQFQLLEQQWERMIAKHHKESKVPSSTDMEGKLKENQNENIKGHEAKKAHKPPPEDYEIAAARMLAKAQAKLKELEASQSHMDSQLLEA [chain 1 W228A K229A]: the response (arbitrary units) came out at 470.

For chain 1 MTTLIEQLITKMGLREEPNVLEKTTELVRLLELRSTNVPLQINEYGKIVLCADLASCMIGIAFDKEQALKLSGLRKSQYLNNKRMFEKLLDLNKLASVNDICVQLGLNEVARKAEELMTLFKGVAATEDMGTDTSHPQYATMAVFQACRLLKKKVSKSKLMPFSNLRPSQFQLLEQQWERMIAKHHKESKVPSSTDMEGKLKENQNENIKGHEAKKAHKPPPEAAEIWKARMLAKAQAKLKELEASQSHMDSQLLEA [chain 1 D224A Y225A], the response (arbitrary units) was 550.
